Reference: doi:10.1101/2022.06.13.496020 (bioRxiv, 2022)

Biological target: TSH β-subunit (human, UniProt P01222 21-132, N-linked glycan (one))
Assay: cryo-EM structure

Chain of TSH β-subunit (P01222 21-132): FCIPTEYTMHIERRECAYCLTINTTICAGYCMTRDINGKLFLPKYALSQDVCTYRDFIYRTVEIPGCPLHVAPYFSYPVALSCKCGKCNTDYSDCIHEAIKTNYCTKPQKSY

binding result: binds
B1: TSH α-subunit (natural protein)
chain: not shown
modifications: N-linked glycans (two, one at N52)
